T1: mouse FcγRIII extracellular domain, C-terminally His-tagged (mouse, UniProt P08508 31-215)
T1 construct: the whole entry is named; also called mFcγRIII; mFcgRIII
T1 chain: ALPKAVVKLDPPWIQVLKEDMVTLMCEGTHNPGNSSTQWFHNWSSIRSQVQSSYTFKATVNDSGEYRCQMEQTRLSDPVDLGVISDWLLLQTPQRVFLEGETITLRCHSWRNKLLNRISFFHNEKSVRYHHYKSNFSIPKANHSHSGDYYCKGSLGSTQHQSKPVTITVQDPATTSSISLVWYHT

T2: mouse FcγRII extracellular domain, C-terminally His-tagged (mouse, UniProt P08101 30-210)
T2 construct: the whole entry is named; also called mFcγRII; mFcgRII
T2 sequence: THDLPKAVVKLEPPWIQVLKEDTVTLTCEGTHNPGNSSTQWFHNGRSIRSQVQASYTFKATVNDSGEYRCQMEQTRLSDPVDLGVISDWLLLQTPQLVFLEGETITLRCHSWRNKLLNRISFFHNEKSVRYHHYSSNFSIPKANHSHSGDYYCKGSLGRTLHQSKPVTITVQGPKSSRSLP


What was measured:
[1] = molecular target: T1, mouse FcγRIII extracellular domain, …; experiment: SPR Biacore T200, KD ratio
[2] = molecular target: T2, mouse FcγRII extracellular domain, …; experiment: SPR Biacore T200, KD ratio

| relative mFcγRIII-binding activity (MB390 = 1) [1] [fold] | relative mFcγRIII-binding activity (mIgG1 = 1) [1] [fold] | relative mFcγRII-binding activity (MB390 = 1) [2] [fold] | relative mFcγRII-binding activity (mIgG1 = 1) [2] [fold] | Binder |
| --- | --- | --- | --- | --- |
| 0.39 | 4.7 | 0.49 | 254 | H237-MB478/MRAL-k0 (antibody, mouse IgG1, kappa, copies: 2 + 2) heavy: QVQLQESGPGLVKPSETLSLTCAVSGHSISHDHAWSWVRQPPGEGLEWIGFISYSGITNYNPSLQGRVTISRDNSKNTLYLQMNSLRAEDTAVYYCARSLARTTAMDYWGEGTLVTVSSAKTTPPSVYPLAPGSAAQTNSMVTLGCLVKGYFPEPVTVTWNSGSLSSGVHTFPAVLQSDLYTLSSSVTVPSSTWPSETVTCNVAHPASSTKVDKKIVPRDCGCKPCICEPNEVEDVFIFPPKPKDVLTITLTPKVTCVVVDISKDDPEVQFSWFVDDVEVHTAQTQPREELFNSTFRSVSELPIMHQDWLNGKEFKCRVNSAAFPAPIEKTISKTKGRPKAPQVYTIPPPKEQMAKDKVSLTCMITDFFPEDITVEWQWNGQPAENYKNTQPIMDTDGSYFVYSKLNVQKSNWEAGNTFTCSVLHEGLHNHHTEKSLSHSPGK light: not shown |
| 3.77 | 44.9 | 2.73 | 1420 | H237-MB493/MRAL-k0 (antibody, mouse IgG1, kappa, copies: 2 + 2) heavy: QVQLQESGPGLVKPSETLSLTCAVSGHSISHDHAWSWVRQPPGEGLEWIGFISYSGITNYNPSLQGRVTISRDNSKNTLYLQMNSLRAEDTAVYYCARSLARTTAMDYWGEGTLVTVSSAKTTPPSVYPLAPGSAAQTNSMVTLGCLVKGYFPEPVTVTWNSGSLSSGVHTFPAVLQSDLYTLSSSVTVPSSTWPSETVTCNVAHPASSTKVDKKIVPRDCGCKPCICEPNEVEDVFIFPPKPKDVLTITLTPKVTCVVVDISKDDPEVQFSWFVDDVEVHTAQTQPREEQFNLTFRSVSELPIMHQDWLNGKEFKCRVDSAAFPAPIEKTISKTKGRPKAPQVYTIPPPKEQMAKDKVSLTCMITDFFPEDITVEWQWNGQPAENYKNTQPIMDTDGSYFVYSKLNVQKSNWEAGNTFTCSVLHEGLHNHHTEKSLSHSPGK light: not shown |
| 1.05 | 12.4 | 0.92 | 478 | H237-MB491/MRAL-k0 (antibody, mouse IgG1, kappa, copies: 2 + 2) heavy: QVQLQESGPGLVKPSETLSLTCAVSGHSISHDHAWSWVRQPPGEGLEWIGFISYSGITNYNPSLQGRVTISRDNSKNTLYLQMNSLRAEDTAVYYCARSLARTTAMDYWGEGTLVTVSSAKTTPPSVYPLAPGSAAQTNSMVTLGCLVKGYFPEPVTVTWNSGSLSSGVHTFPAVLQSDLYTLSSSVTVPSSTWPSETVTCNVAHPASSTKVDKKIVPRDCGCKPCICEPNEVEDVFIFPPKPKDVLTITLTPKVTCVVVDISKDDPEVQFSWFVDDVEVHTAQTQPREEQFNMTFRSVSELPIMHQDWLNGKEFKCRVNSAAFPAPIEKTISKTKGRPKAPQVYTIPPPKEQMAKDKVSLTCMITDFFPEDITVEWQWNGQPAENYKNTQPIMDTDGSYFVYSKLNVQKSNWEAGNTFTCSVLHEGLHNHHTEKSLSHSPGK light: not shown |
| 4.99 | 59.4 | 4.05 | 2110 | H237-MB494/MRAL-k0 (antibody, mouse IgG1, kappa, copies: 2 + 2) heavy: QVQLQESGPGLVKPSETLSLTCAVSGHSISHDHAWSWVRQPPGEGLEWIGFISYSGITNYNPSLQGRVTISRDNSKNTLYLQMNSLRAEDTAVYYCARSLARTTAMDYWGEGTLVTVSSAKTTPPSVYPLAPGSAAQTNSMVTLGCLVKGYFPEPVTVTWNSGSLSSGVHTFPAVLQSDLYTLSSSVTVPSSTWPSETVTCNVAHPASSTKVDKKIVPRDCGCKPCICEPNEVEDVFIFPPKPKDVLTITLTPKVTCVVVDISKDDPEVQFSWFVDDVEVHTAQTQPREEQFNLTFRSVSELPIMHQDWLNGKEFKCRVNSAAFPAPIERTISKTKGRPKAPQVYTIPPPKEQMAKDKVSLTCMITDFFPEDITVEWQWNGQPAENYKNTQPIMDTDGSYFVYSKLNVQKSNWEAGNTFTCSVLHEGLHNHHTEKSLSHSPGK light: not shown |
| 2.9 | 34.6 | 2.16 | 1130 | H237-MB490/MRAL-k0 (antibody, mouse IgG1, kappa, copies: 2 + 2) heavy: QVQLQESGPGLVKPSETLSLTCAVSGHSISHDHAWSWVRQPPGEGLEWIGFISYSGITNYNPSLQGRVTISRDNSKNTLYLQMNSLRAEDTAVYYCARSLARTTAMDYWGEGTLVTVSSAKTTPPSVYPLAPGSAAQTNSMVTLGCLVKGYFPEPVTVTWNSGSLSSGVHTFPAVLQSDLYTLSSSVTVPSSTWPSETVTCNVAHPASSTKVDKKIVPRDCGCKPCICEPNEVEDVFIFPPKPKDVLTITLTPKVTCVVVDISKDDPEVQFSWFVDDVEVHTAQTQPREEQFNLTFRSVSELPIMHQDWLNGKEFKCRVNSAAFPAPIEKTISKTKGRPKAPQVYTIPPPKEQMAKDKVSLTCMITDFFPEDITVEWQWNGQPAENYKNTQPIMDTDGSYFVYSKLNVQKSNWEAGNTFTCSVLHEGLHNHHTEKSLSHSPGK light: not shown |
| 0.85 | 10.2 | 0.98 | 511 | H237-MB480/MRAL-k0 (antibody, mouse IgG1, kappa, copies: 2 + 2) heavy: QVQLQESGPGLVKPSETLSLTCAVSGHSISHDHAWSWVRQPPGEGLEWIGFISYSGITNYNPSLQGRVTISRDNSKNTLYLQMNSLRAEDTAVYYCARSLARTTAMDYWGEGTLVTVSSAKTTPPSVYPLAPGSAAQTNSMVTLGCLVKGYFPEPVTVTWNSGSLSSGVHTFPAVLQSDLYTLSSSVTVPSSTWPSETVTCNVAHPASSTKVDKKIVPRDCGCKPCICEPNEVEDVFIFPPKPKDVLTITLTPKVTCVVVDISKDDPEVQFSWFVDDVEVHTAQTQPREEQFNSTFRSVSELPIMHQDWLNGKEFKCRVNSAAFPAPIERTISKTKGRPKAPQVYTIPPPKEQMAKDKVSLTCMITDFFPEDITVEWQWNGQPAENYKNTQPIMDTDGSYFVYSKLNVQKSNWEAGNTFTCSVLHEGLHNHHTEKSLSHSPGK light: not shown |
| 1.71 | 20.3 | 1.7 | 884 | H237-MB496/MRAL-k0 (antibody, mouse IgG1, kappa, copies: 2 + 2) heavy: QVQLQESGPGLVKPSETLSLTCAVSGHSISHDHAWSWVRQPPGEGLEWIGFISYSGITNYNPSLQGRVTISRDNSKNTLYLQMNSLRAEDTAVYYCARSLARTTAMDYWGEGTLVTVSSAKTTPPSVYPLAPGSAAQTNSMVTLGCLVKGYFPEPVTVTWNSGSLSSGVHTFPAVLQSDLYTLSSSVTVPSSTWPSETVTCNVAHPASSTKVDKKIVPRDCGCKPCICEPNEVEDVFIFPPKPKDVLTITLTPKVTCVVVDISKDDPEVQFSWFVDDVEVHTAQTQPREEQFNMTFRSVSELPIMHQDWLNGKEFKCRVNSAAFPAPIERTISKTKGRPKAPQVYTIPPPKEQMAKDKVSLTCMITDFFPEDITVEWQWNGQPAENYKNTQPIMDTDGSYFVYSKLNVQKSNWEAGNTFTCSVLHEGLHNHHTEKSLSHSPGK light: not shown |
| 0.92 | 10.9 | 1.19 | 622 | H237-MB492/MRAL-k0 (antibody, mouse IgG1, kappa, copies: 2 + 2) heavy: QVQLQESGPGLVKPSETLSLTCAVSGHSISHDHAWSWVRQPPGEGLEWIGFISYSGITNYNPSLQGRVTISRDNSKNTLYLQMNSLRAEDTAVYYCARSLARTTAMDYWGEGTLVTVSSAKTTPPSVYPLAPGSAAQTNSMVTLGCLVKGYFPEPVTVTWNSGSLSSGVHTFPAVLQSDLYTLSSSVTVPSSTWPSETVTCNVAHPASSTKVDKKIVPRDCGCKPCICEPNEVEDVFIFPPKPKDVLTITLTPKVTCVVVDISKDDPEVQFSWFVDDVEVHTAQTQPREEQFNSTFRSVSELPIMHQDWLNGKEFKCRVDSAAFPAPIEKTISKTKGRPKAPQVYTIPPPKEQMAKDKVSLTCMITDFFPEDITVEWQWNGQPAENYKNTQPIMDTDGSYFVYSKLNVQKSNWEAGNTFTCSVLHEGLHNHHTEKSLSHSPGK light: not shown |
| 1.16 | 13.8 | 1.41 | 734 | H237-MB479/MRAL-k0 (antibody, mouse IgG1, kappa, copies: 2 + 2) heavy: QVQLQESGPGLVKPSETLSLTCAVSGHSISHDHAWSWVRQPPGEGLEWIGFISYSGITNYNPSLQGRVTISRDNSKNTLYLQMNSLRAEDTAVYYCARSLARTTAMDYWGEGTLVTVSSAKTTPPSVYPLAPGSAAQTNSMVTLGCLVKGYFPEPVTVTWNSGSLSSGVHTFPAVLQSDLYTLSSSVTVPSSTWPSETVTCNVAHPASSTKVDKKIVPRDCGCKPCICEPNEVEDVFIFPPKPKDVLTITLTPKVTCVVVDISKDDPEVQFSWFVDDVEVHTAQTQPREEQFNSTFRSVSELPIMHQDWLNGKEFKCRVNSDAFPAPIEKTISKTKGRPKAPQVYTIPPPKEQMAKDKVSLTCMITDFFPEDITVEWQWNGQPAENYKNTQPIMDTDGSYFVYSKLNVQKSNWEAGNTFTCSVLHEGLHNHHTEKSLSHSPGK light: not shown |
| 1.45 | 17.2 | 1.2 | 623 | H237-MB495/MRAL-k0 (antibody, mouse IgG1, kappa, copies: 2 + 2) heavy: QVQLQESGPGLVKPSETLSLTCAVSGHSISHDHAWSWVRQPPGEGLEWIGFISYSGITNYNPSLQGRVTISRDNSKNTLYLQMNSLRAEDTAVYYCARSLARTTAMDYWGEGTLVTVSSAKTTPPSVYPLAPGSAAQTNSMVTLGCLVKGYFPEPVTVTWNSGSLSSGVHTFPAVLQSDLYTLSSSVTVPSSTWPSETVTCNVAHPASSTKVDKKIVPRDCGCKPCICEPNEVEDVFIFPPKPKDVLTITLTPKVTCVVVDISKDDPEVQFSWFVDDVEVHTAQTQPREEQFNMTFRSVSELPIMHQDWLNGKEFKCRVDSAAFPAPIEKTISKTKGRPKAPQVYTIPPPKEQMAKDKVSLTCMITDFFPEDITVEWQWNGQPAENYKNTQPIMDTDGSYFVYSKLNVQKSNWEAGNTFTCSVLHEGLHNHHTEKSLSHSPGK light: not shown |
